This is an account of results in article PMC10186271, “The ABA-induced NAC transcription factor MdNAC1 interacts with a bZIP-type transcription factor to promote anthocyanin synthesis in red-fleshed apples”.

Positions count from the first letter of the chain named.

In series [1] the target is T1, MdNAC1 (Malus domestica, UniProt D9ZJ87 1-280).
T1 sequence: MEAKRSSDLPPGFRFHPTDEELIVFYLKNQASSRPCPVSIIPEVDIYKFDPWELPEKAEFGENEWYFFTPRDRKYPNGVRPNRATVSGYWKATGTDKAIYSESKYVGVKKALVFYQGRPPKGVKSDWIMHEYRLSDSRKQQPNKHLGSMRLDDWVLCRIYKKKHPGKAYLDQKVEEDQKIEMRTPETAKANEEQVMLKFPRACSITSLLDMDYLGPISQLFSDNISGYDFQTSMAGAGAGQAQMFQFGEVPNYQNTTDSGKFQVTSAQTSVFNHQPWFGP
The series can be described thus: EMSA; unlabeled competitor decreased binding; Thermo Scientific Pierce EMSA kit protocol; buffer, salt, pH and temperature not stated; cold probe 100x. The settings on record: protein: recombinant; tags: His (pET32a); chain copies: 2; label: 3' biotin; blunt.

Series [2] deals with T1, MdNAC1. The series can be described thus: EMSA; Thermo Scientific Pierce EMSA kit protocol; buffer, salt, pH and temperature not stated; cold probe 100x. The settings on record: protein: recombinant; tags: His (pET32a); chain copies: 2; label: 3' biotin; blunt.

B1: MYB10 hot probe (dsDNA)
DNA 1: TTTAATAAAAAGGACCCTGAACACGTGGGAACCGGCCCGTTTGTAA
DNA 2: TTACAAACGGGCCGGTTCCCACGTGTTCAGGGTCCTTTTTATTAAA
With B1, the binding result with MdNAC1 [1] is recorded as “binds”.

B2: MYB10 mutant probe (dsDNA)
DNA 1: B1 DNA 1 with C22T, A23T, C24A, G25A
DNA 2: B1 DNA 2 with C22T, G23T, T24A, G25A
Regarding B2, the binding result in the series with MdNAC1 [2] was “no binding”.

B3: UFGT hot probe (box 1) (dsDNA)
DNA 1: GTGATTGGCTTCTGATGTTGACACGTGTCGCGCTGTGGTTGGCTTC
DNA 2: GAAGCCAACCACAGCGCGACACGTGTCAACATCAGAAGCCAATCAC
As to B3, in the series with MdNAC1 [1], the binding result is given as “binds”.

B4: UFGT mutant probe (box 1) (dsDNA)
DNA 1: B3 DNA 1 with A23C, C24T, G25C
DNA 2: B3 DNA 2 with C22G, G23A, T24G
Turning to B4, in the series with MdNAC1 [2], the binding result is listed as “no binding”.
